IntAct's records for PubMed 20739936

B1: Borealin (Homo sapiens), Q53HL2 (parent)
chain: MAPRKGSSRVAKTNSLRRRKLASFLKDFDREVEIRIKQIESDRQNLLKEVDNLYNIEILRLPKALREMNWLDYFALGGNKQALEEAATADLDITEINKLTAEAIQTPLKSAKTRKVIQVDEMIVEEEEEEENERKNLQTARVKRCPPSKKRTQSIQGKGKGKRSSRANTVTPAVGRLEVSMVKPTPGLTPRFDSRVFKTPGLRTPAAGERIYNISGNGSPLADSKEIFLTVPVGGGESLRLLASDLQRHSIAQLDPEALGNIKKLSNRLAQICSSIRTHK
B2: Chromosomal passenger complex protein bir1 (Schizosaccharomyces pombe (strain ATCC 38366 / 972)), O14064 (parent)
chain: MKPITSSSKRRWNRFRREMCNYSKRLDTFQKKKWPRAKPTPETLATVGFYYNPISESNSEERLDNVTCYMCTKSFYDWEDDDDPLKEHITHSPSCPWAYILSSKNNPNQNPQAAALTKCREQTFVDKVWPYTNRPDYHCEPSVMAASGFVYNPTADAKDAAHCLYCDINLHDWEPDDDPYTEHKRRRADCVFFTWKDPNSLSPTKLSFLSTSNIDPEDLTEDNSILPVSPTRDSTKSHKTLNFSPSRKNNLNARPLTMSLYTNTSEEKDSQPTRAPQSPTKPVLLTAPRRKNKSPKKSKPAVFKPVKPIFSDEDEDDDDLTASQPFSKGICNDSMQVAKKNFTEEIPLKEDEKDNELEHLVSPATSVHTTVSDITGHQSVTDESDEQNNCMSTPPKIEIESKIEEEISVVSKSKEISSSVSSVGKEQNHTEKQVAIETPEQQKVEKEDEHLNLQGSFIEESTKQPISSKPSTSSPDMTDAATGGRVSSSSFRDKILQTNFSPRSTIDSFSNISKKRNSEEANDENDETNLKIPIPEKKRKFQEVLQSKNILVSSTEDSHEPVKVTEDSQTAIHVSKFEDLENKSMESEQSLQLLSESENDDKPLIDLIPLLAIKRKDNLVSGVLEKGKSTSTSKTKFDTSIVDFIEKPKTEISEVLPEEKRKAICDESQTVRVSIDRGVTKTRDVSSPVSDEKSENVNHEEANSGHTVMNVHSSLDPQPIVQPNELESGSYLKDLPDRNVGNSEKVTFQEDDINSPKLQSKNNQTVEAVNTETSDKLQEKEANHELENIEKIEEKLTEVDKVSLSDAFPDQEIKNSRTSVQNGTRSVSKNTPEKETKVDKIDNVSKKDVETSPGSCETSSAFAKTYAEKEVTSINLPSVRKPLDESYYDHSISPFDPLCQSSFLAPQTPVKSKHALPLVEANAPPWEPIDFSSLLESPVPNPVEPNKLSEKELDMTVEQWIKFMYAKCAKEFEEACEEKIEWLLEEGKRAEEYIQNL
partner: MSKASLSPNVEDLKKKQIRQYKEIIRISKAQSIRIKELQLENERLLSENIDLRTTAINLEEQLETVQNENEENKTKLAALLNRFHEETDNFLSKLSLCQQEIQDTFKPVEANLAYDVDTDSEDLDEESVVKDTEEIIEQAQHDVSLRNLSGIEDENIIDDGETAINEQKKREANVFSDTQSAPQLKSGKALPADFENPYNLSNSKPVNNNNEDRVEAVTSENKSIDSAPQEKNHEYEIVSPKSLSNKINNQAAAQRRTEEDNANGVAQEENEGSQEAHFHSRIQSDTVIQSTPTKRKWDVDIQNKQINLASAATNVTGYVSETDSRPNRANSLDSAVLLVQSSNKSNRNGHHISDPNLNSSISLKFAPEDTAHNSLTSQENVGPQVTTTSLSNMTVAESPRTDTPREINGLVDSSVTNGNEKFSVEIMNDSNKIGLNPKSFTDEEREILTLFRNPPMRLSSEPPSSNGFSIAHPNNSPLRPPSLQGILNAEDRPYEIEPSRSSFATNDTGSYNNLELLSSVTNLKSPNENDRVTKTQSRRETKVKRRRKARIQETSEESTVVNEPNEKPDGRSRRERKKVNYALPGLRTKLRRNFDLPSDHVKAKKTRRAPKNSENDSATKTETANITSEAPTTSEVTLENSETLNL
B3: Borealin (Homo sapiens), Q53HL2 (parent)
chain: B1 chain
partner: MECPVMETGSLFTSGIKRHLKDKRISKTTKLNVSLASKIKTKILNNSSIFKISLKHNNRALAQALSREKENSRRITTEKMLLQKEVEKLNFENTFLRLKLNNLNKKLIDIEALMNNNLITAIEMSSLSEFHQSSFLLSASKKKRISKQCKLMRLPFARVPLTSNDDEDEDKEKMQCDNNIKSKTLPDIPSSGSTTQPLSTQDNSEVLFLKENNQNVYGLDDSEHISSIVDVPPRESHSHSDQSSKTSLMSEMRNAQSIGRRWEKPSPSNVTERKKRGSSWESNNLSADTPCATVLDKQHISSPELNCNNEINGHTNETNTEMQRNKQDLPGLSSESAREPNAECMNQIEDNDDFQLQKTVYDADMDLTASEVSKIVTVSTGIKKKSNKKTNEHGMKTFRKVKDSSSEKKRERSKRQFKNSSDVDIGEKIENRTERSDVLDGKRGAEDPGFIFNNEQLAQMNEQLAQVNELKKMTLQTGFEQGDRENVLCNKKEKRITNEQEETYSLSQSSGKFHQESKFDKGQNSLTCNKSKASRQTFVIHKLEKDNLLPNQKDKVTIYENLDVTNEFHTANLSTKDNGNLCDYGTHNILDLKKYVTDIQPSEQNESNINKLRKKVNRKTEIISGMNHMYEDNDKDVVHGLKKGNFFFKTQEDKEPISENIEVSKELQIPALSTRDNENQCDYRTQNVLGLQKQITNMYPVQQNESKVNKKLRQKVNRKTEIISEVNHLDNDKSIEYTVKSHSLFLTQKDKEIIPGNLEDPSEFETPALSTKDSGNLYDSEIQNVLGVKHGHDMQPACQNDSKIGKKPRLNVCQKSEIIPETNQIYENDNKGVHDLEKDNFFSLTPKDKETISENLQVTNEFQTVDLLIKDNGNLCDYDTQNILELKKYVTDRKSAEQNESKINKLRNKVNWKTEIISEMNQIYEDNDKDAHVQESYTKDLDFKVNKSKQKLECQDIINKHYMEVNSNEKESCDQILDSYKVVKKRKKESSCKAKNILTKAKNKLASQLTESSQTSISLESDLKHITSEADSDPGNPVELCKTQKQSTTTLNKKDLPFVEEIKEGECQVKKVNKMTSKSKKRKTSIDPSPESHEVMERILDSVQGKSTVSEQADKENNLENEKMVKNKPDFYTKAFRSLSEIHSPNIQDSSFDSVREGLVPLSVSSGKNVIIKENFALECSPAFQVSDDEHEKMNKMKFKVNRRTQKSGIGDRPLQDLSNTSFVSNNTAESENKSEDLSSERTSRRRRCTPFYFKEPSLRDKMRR

Variants of: B1
Settings: with sgo1_human SGO1, Q5FBB7
sgo1_human SGO1, Q5FBB7, sequence (Q5FBB7 whole entry): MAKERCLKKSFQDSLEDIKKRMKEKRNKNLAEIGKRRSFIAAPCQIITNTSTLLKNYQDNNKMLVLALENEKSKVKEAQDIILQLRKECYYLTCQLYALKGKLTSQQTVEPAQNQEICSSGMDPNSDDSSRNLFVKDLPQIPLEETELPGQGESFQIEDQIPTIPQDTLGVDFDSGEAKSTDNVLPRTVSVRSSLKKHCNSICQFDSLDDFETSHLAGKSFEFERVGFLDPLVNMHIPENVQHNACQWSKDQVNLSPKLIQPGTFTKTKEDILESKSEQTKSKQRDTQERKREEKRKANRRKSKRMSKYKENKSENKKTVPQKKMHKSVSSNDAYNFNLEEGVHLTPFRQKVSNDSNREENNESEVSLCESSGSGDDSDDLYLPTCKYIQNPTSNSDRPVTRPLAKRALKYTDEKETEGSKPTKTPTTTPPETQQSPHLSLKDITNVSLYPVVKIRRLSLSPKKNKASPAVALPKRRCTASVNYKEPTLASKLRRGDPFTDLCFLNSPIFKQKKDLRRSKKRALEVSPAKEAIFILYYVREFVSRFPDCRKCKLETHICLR

effect of a mutation on the interaction | Variant
disrupting interaction strength | T106A;T171A;T185A;T189A;T199A;T204A;S219A

Variants of: B2
Settings: with sgo2_schpo sgo2, O13734

effect of a mutation on the interaction | Variant
disrupting interaction | S202A;S229A;S244A;S278A;S294A;T393A;T831A;T908A

Variants of: B2
Settings: with sgo2_schpo sgo2, O13734
Remark: another data set of the same source

effect of a mutation on the interaction | Variant
disrupting interaction | S202A;S229A;S244A;S278A;S294A

Variants of: B3
Settings: with sgo2_human SGO2, Q562F6

effect of a mutation on the interaction | Variant
disrupting interaction strength | T106A;T171A;T185A;T189A;T199A;T204A;S219A
